Assay [1] concerns the target Tel1 (yeast (budding yeast)) (UniProt P38110). As to the kind of experiment: SEC; Tel1 on Superose 6 Increase 5/150 GL, 0.1 ml/min; 50 mM HEPES-KOH pH 7.4, 200 mM KCl, 10% glycerol, 0.1% Tween 20, 0.02% C12E10, 1 mM EDTA, 3 mM DTT; size against Bio-Rad gel filtration standards. (In gel filtration, larger molecules generally elute earlier.)
Assay [2] shares this target. As to the kind of experiment: negative stain electron microscopy, single-particle reconstruction; 20 nM Tel1 in 50 mM HEPES pH 7.4, 150 mM NaCl, 5% glycerol, 1 mM EDTA, 1 mM DTT; 2% uranyl acetate; C2 symmetry applied; 21 Å (FSC 0.5).
Assay [3] has the same target. In words: cryo-EM structure; 20 nM Tel1 in 50 mM HEPES-KOH pH 7.4, 210 mM KCl, 1% glycerol, 0.02% Tween 20, 0.002% Nonidet P-40, 1 mM EDTA, 0.5 mM EGTA, 1 mM DTT, 0.5 mM MgCl2; holey carbon grids with a thin carbon layer; 19.2 Å.
Assay [4] deals with Mec1·Ddc2 complex (yeast (budding yeast)) (UniProt P38111). In words: negative stain electron microscopy, single-particle reconstruction; 70 nM Mec1·Ddc2 in 30 mM HEPES pH 7.4, 200 mM NaCl, 5% glycerol, 0.5 mM EDTA, 1 mM DTT; 2% uranyl acetate; C2 symmetry applied; 22.5 Å.
Assay [5] shares this target. As to the kind of experiment: SEC; Mec1·Ddc2 on Superose 6 HR 10/30, 0.3 ml/min; 50 mM HEPES-KOH pH 7.4, 200 mM KCl, 10% glycerol, 0.1% Tween 20, 0.01% Nonidet P-40, 1 mM EDTA, 1 mM EGTA, 2 mM DTT; size against Bio-Rad gel filtration standards; peak fractions on SDS-PAGE.

Broadly, the stoichiometry N is a count of units in the complex or per binding partner. As for Tel1, P38110 1-2787, the stoichiometry N in assay [1], in assay [2] and in assay [3] was 2 in each case.
For “Mec1·Ddc2 complex, P38111 1-2368; Q04377 1-747”, in assay [4], the percent of particles of the size of the dimer was found to be 81% and the stoichiometry N is 2. In assay [5], the stoichiometry N is 2.

The values are drawn from article PMC4919432.
